The values that follow come from patent publication US20050191294A1, “Compositions and methods of use of targeting peptides for diagnosis and therapy” (Board of Regents, The University of Texas System, priority 2003, published 2005).

The assay addresses recombinant gst-fused prohibitin [GST: P08515]. In words: phage binding to gst-prohibitin immobilized on microtiter plate, 10^9 TU, bound TU counted.

Chain of recombinant gst-fused prohibitin [GST: P08515] (P08515 whole entry, the tested form may be a part): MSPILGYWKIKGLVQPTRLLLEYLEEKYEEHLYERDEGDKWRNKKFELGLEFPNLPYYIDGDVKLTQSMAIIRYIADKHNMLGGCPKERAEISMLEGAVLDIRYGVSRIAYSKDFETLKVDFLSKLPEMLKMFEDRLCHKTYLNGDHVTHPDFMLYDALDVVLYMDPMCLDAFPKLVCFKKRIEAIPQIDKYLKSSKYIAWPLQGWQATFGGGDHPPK

On to CKGGRAKDC (peptide, not shown: large carriers, modifications not checked) [… (SEQ ID NO:4)-displaying phage], for which the fold binding relative to control insertless phage amounted to 8 fold.
